Assay results taken from patent US20260207798A1, “CYCLIC PEPTIDES AS PET IMAGING AGENTS OF GRANZYME B” (priority 2022, published 2026).
Bridge positions count the residues as written; N and C are the ends. Square brackets hold non-standard residues; d marks the D form. NEtAla = CCN[C@@H](C)C(=O)O; NMeA = CN[C@@H](C)C(=O)O

B1: Compound 44a (peptide)
peptide: {CH2CO}-FNFEDQSPATWQPCG-NH2
modifications: thioether N-14
SMILES: C[C@@H]1NC(=O)[C@@H]2CCCN2C(=O)[C@H](CO)NC(=O)[C@H](CCC(N)=O)NC(=O)[C@H](CC(=O)O)NC(=O)[C@H](CCC(=O)O)NC(=O)[C@H](Cc2ccccc2)NC(=O)[C@H](CC(N)=O)NC(=O)[C@H](Cc2ccccc2)NC(=O)CSC[C@@H](C(=O)NCC(N)=O)NC(=O)[C@@H]2CCCN2C(=O)[C@H](CCC(N)=O)NC(=O)[C@H](Cc2c[nH]c3ccccc23)NC(=O)[C@H]([C@@H](C)O)NC1=O
B2: Compound 46a (peptide)
peptide: {CH2CO}-FNFEDQSPRTWQPCG-NH2
modifications: thioether N-14
SMILES: C[C@@H](O)[C@@H]1NC(=O)[C@H](CCCNC(=N)N)NC(=O)[C@@H]2CCCN2C(=O)[C@H](CO)NC(=O)[C@H](CCC(N)=O)NC(=O)[C@H](CC(=O)O)NC(=O)[C@H](CCC(=O)O)NC(=O)[C@H](Cc2ccccc2)NC(=O)[C@H](CC(N)=O)NC(=O)[C@H](Cc2ccccc2)NC(=O)CSC[C@@H](C(=O)NCC(N)=O)NC(=O)[C@@H]2CCCN2C(=O)[C@H](CCC(N)=O)NC(=O)[C@H](Cc2c[nH]c3ccccc23)NC1=O
B3: Compound 56a (peptide)
peptide: {CH2CO}-FNFEDQSPQTWQPCG-NH2
modifications: thioether N-14
SMILES: C[C@@H](O)[C@@H]1NC(=O)[C@H](CCC(N)=O)NC(=O)[C@@H]2CCCN2C(=O)[C@H](CO)NC(=O)[C@H](CCC(N)=O)NC(=O)[C@H](CC(=O)O)NC(=O)[C@H](CCC(=O)O)NC(=O)[C@H](Cc2ccccc2)NC(=O)[C@H](CC(N)=O)NC(=O)[C@H](Cc2ccccc2)NC(=O)CSC[C@@H](C(=O)NCC(N)=O)NC(=O)[C@@H]2CCCN2C(=O)[C@H](CCC(N)=O)NC(=O)[C@H](Cc2c[nH]c3ccccc23)NC1=O
B4: Compound 57a (peptide)
peptide: {CH2CO}-FNFEDQSPSTWQPCG-NH2
modifications: thioether N-14
SMILES: C[C@@H](O)[C@@H]1NC(=O)[C@H](CO)NC(=O)[C@@H]2CCCN2C(=O)[C@H](CO)NC(=O)[C@H](CCC(N)=O)NC(=O)[C@H](CC(=O)O)NC(=O)[C@H](CCC(=O)O)NC(=O)[C@H](Cc2ccccc2)NC(=O)[C@H](CC(N)=O)NC(=O)[C@H](Cc2ccccc2)NC(=O)CSC[C@@H](C(=O)NCC(N)=O)NC(=O)[C@@H]2CCCN2C(=O)[C@H](CCC(N)=O)NC(=O)[C@H](Cc2c[nH]c3ccccc23)NC1=O
B5: Compound 58a (peptide)
peptide: {CH2CO}-FNFEDQSPKTWQPCG-NH2
modifications: thioether N-14
SMILES: C[C@@H](O)[C@@H]1NC(=O)[C@H](CCCCN)NC(=O)[C@@H]2CCCN2C(=O)[C@H](CO)NC(=O)[C@H](CCC(N)=O)NC(=O)[C@H](CC(=O)O)NC(=O)[C@H](CCC(=O)O)NC(=O)[C@H](Cc2ccccc2)NC(=O)[C@H](CC(N)=O)NC(=O)[C@H](Cc2ccccc2)NC(=O)CSC[C@@H](C(=O)NCC(N)=O)NC(=O)[C@@H]2CCCN2C(=O)[C@H](CCC(N)=O)NC(=O)[C@H](Cc2c[nH]c3ccccc23)NC1=O
B6: Compound 59a (peptide)
peptide: {CH2CO}-FNFEDQSPYTWQPCG-NH2
modifications: thioether N-14
SMILES: C[C@@H](O)[C@@H]1NC(=O)[C@H](Cc2ccc(O)cc2)NC(=O)[C@@H]2CCCN2C(=O)[C@H](CO)NC(=O)[C@H](CCC(N)=O)NC(=O)[C@H](CC(=O)O)NC(=O)[C@H](CCC(=O)O)NC(=O)[C@H](Cc2ccccc2)NC(=O)[C@H](CC(N)=O)NC(=O)[C@H](Cc2ccccc2)NC(=O)CSC[C@@H](C(=O)NCC(N)=O)NC(=O)[C@@H]2CCCN2C(=O)[C@H](CCC(N)=O)NC(=O)[C@H](Cc2c[nH]c3ccccc23)NC1=O
B7: Compound 60a (peptide)
peptide: {CH2CO}-FNFEDQSPHTWQPCG-NH2
modifications: thioether N-14
SMILES: C[C@@H](O)[C@@H]1NC(=O)[C@H](Cc2c[nH]cn2)NC(=O)[C@@H]2CCCN2C(=O)[C@H](CO)NC(=O)[C@H](CCC(N)=O)NC(=O)[C@H](CC(=O)O)NC(=O)[C@H](CCC(=O)O)NC(=O)[C@H](Cc2ccccc2)NC(=O)[C@H](CC(N)=O)NC(=O)[C@H](Cc2ccccc2)NC(=O)CSC[C@@H](C(=O)NCC(N)=O)NC(=O)[C@@H]2CCCN2C(=O)[C@H](CCC(N)=O)NC(=O)[C@H](Cc2c[nH]c3ccccc23)NC1=O
B8: Compound 63a (peptide)
peptide: {CH2CO}-FNFEDQGPDTWQPCG-NH2
modifications: thioether N-14
SMILES: C[C@@H](O)[C@@H]1NC(=O)[C@H](CC(=O)O)NC(=O)[C@@H]2CCCN2C(=O)CNC(=O)[C@H](CCC(N)=O)NC(=O)[C@H](CC(=O)O)NC(=O)[C@H](CCC(=O)O)NC(=O)[C@H](Cc2ccccc2)NC(=O)[C@H](CC(N)=O)NC(=O)[C@H](Cc2ccccc2)NC(=O)CSC[C@@H](C(=O)NCC(N)=O)NC(=O)[C@@H]2CCCN2C(=O)[C@H](CCC(N)=O)NC(=O)[C@H](Cc2c[nH]c3ccccc23)NC1=O
B9: Compound 65a (peptide)
peptide: {CH2CO}-FNFEDQSPGTWQPCG-NH2
modifications: thioether N-14
SMILES: C[C@@H](O)[C@@H]1NC(=O)CNC(=O)[C@@H]2CCCN2C(=O)[C@H](CO)NC(=O)[C@H](CCC(N)=O)NC(=O)[C@H](CC(=O)O)NC(=O)[C@H](CCC(=O)O)NC(=O)[C@H](Cc2ccccc2)NC(=O)[C@H](CC(N)=O)NC(=O)[C@H](Cc2ccccc2)NC(=O)CSC[C@@H](C(=O)NCC(N)=O)NC(=O)[C@@H]2CCCN2C(=O)[C@H](CCC(N)=O)NC(=O)[C@H](Cc2c[nH]c3ccccc23)NC1=O
B10: Compound 67a (peptide)
peptide: {CH2CO}-FNFEDQSPDTWQ[NMeA]CG-NH2
modifications: thioether N-14
SMILES: C[C@@H](O)[C@@H]1NC(=O)[C@H](CC(=O)O)NC(=O)[C@@H]2CCCN2C(=O)[C@H](CO)NC(=O)[C@H](CCC(N)=O)NC(=O)[C@H](CC(=O)O)NC(=O)[C@H](CCC(=O)O)NC(=O)[C@H](Cc2ccccc2)NC(=O)[C@H](CC(N)=O)NC(=O)[C@H](Cc2ccccc2)NC(=O)CSC[C@@H](C(=O)NCC(N)=O)NC(=O)[C@H](C)N(C)C(=O)[C@H](CCC(N)=O)NC(=O)[C@H](Cc2c[nH]c3ccccc23)NC1=O
B11: Compound 68a (peptide)
peptide: {CH2CO}-FNFEDQSPDTWQ[NEtAla]CG-NH2
modifications: thioether N-14
SMILES: CCN1C(=O)[C@H](CCC(N)=O)NC(=O)[C@H](Cc2c[nH]c3ccccc23)NC(=O)[C@H]([C@@H](C)O)NC(=O)[C@H](CC(=O)O)NC(=O)[C@@H]2CCCN2C(=O)[C@H](CO)NC(=O)[C@H](CCC(N)=O)NC(=O)[C@H](CC(=O)O)NC(=O)[C@H](CCC(=O)O)NC(=O)[C@H](Cc2ccccc2)NC(=O)[C@H](CC(N)=O)NC(=O)[C@H](Cc2ccccc2)NC(=O)CSC[C@@H](C(=O)NCC(N)=O)NC(=O)[C@@H]1C
B12: Compound 70a (peptide)
peptide: {CH2CO}-LNFEDQSPDTWQPCG-NH2
modifications: thioether N-14
SMILES: CC(C)C[C@@H]1NC(=O)CSC[C@@H](C(=O)NCC(N)=O)NC(=O)[C@@H]2CCCN2C(=O)[C@H](CCC(N)=O)NC(=O)[C@H](Cc2c[nH]c3ccccc23)NC(=O)[C@H]([C@@H](C)O)NC(=O)[C@H](CC(=O)O)NC(=O)[C@@H]2CCCN2C(=O)[C@H](CO)NC(=O)[C@H](CCC(N)=O)NC(=O)[C@H](CC(=O)O)NC(=O)[C@H](CCC(=O)O)NC(=O)[C@H](Cc2ccccc2)NC(=O)[C@H](CC(N)=O)NC1=O
B13: Compound 72a (peptide)
peptide: {CH2CO}-FNFEDQS[NEtAla]DTWQPCG-NH2
modifications: thioether N-14
SMILES: CCN1C(=O)[C@H](CO)NC(=O)[C@H](CCC(N)=O)NC(=O)[C@H](CC(=O)O)NC(=O)[C@H](CCC(=O)O)NC(=O)[C@H](Cc2ccccc2)NC(=O)[C@H](CC(N)=O)NC(=O)[C@H](Cc2ccccc2)NC(=O)CSC[C@@H](C(=O)NCC(N)=O)NC(=O)[C@@H]2CCCN2C(=O)[C@H](CCC(N)=O)NC(=O)[C@H](Cc2c[nH]c3ccccc23)NC(=O)[C@H]([C@@H](C)O)NC(=O)[C@H](CC(=O)O)NC(=O)[C@@H]1C

Biological target: T1, human Granzyme B (human, UniProt P10144 21-247)
T1 construct: Captured on a Series S Streptavidin chip for SPR; also called hGranzyme B; GzmB
Experiment: SPR, Biacore 8k+, hGranzyme B captured on SA chip, single cycle kinetics, 1:1 model
Experimental: The kinetics of test peptide binding to human Granzyme B (hGranzyme B) was determined by SPR. All experiments were performed at 25° C. using the Biacore 8k+ instrument (Cytiva, Marlborough, MA). The Biacore 8k+ Insight Evaluation Software Version 3.0 was used to fit the data with a 1:1 binding model to determine the association rate constant kₐ (M⁻¹s⁻¹, where “M” ~equals molar and “s” ~equals seconds) and the dissociation rate constant kd (s⁻¹). These rate constants were used to calculate the equilibrium dissociation constant. KD (M)=kd/kₐ.
To measure the binding kinetics of peptides of interest, surfaces were prepared by a capture method to a Series S Streptavidin (SA) chip using a 1×HBS-EP+ running buffer (Cytiva). hGranzyme B was diluted to 10 μg/mL in IX HBS-EP+ and flowed over spot 2 of each flow cell on the chip at a flow rate of 10 ul/min for 20 s to achieve a level of capture of ~1100 RU. An unmodified spot 1 of each flow cell was used as a matrix binding control or reference surface. Binding kinetics were measured using single cycle kinetics at 25° C. by injecting 5 concentrations with 3-fold serial dilutions of test peptides from 0.01 μM to 1 μM. Compound dilutions were performed manually in a running buffer containing 1×HBS-EP+(Cytiva), and a final concentration of 2% DMSO. The interaction analyses over hGranzyme B, were performed using a 120 s association time and a 900 s dissociation time. All experiments were conducted at a flow rate of 50 μL/min with a data collection rate of 10 Hz.
Peptide dilution series included 2 zero concentration points (no compound) which were averaged and subtracted from the peptide concentration injection as DMSO control responses. Binding data acquired from the reference surface (matrix binding control) were subtracted from the binding data for hGranzyme B surface on the chip to determine specific binding. Next, the association phase data were solvent corrected to account for any signal fluctuation throughout the experiment due to subtle DMSO concentration differences. Corrected response data were analyzed using the Biacore 8k+ Evaluation Software Version 3.0 according to the manufacturer. SPR data for representative compounds of the disclosure are found in Table 8.

T1 sequence (P10144 21-247 limits assumed): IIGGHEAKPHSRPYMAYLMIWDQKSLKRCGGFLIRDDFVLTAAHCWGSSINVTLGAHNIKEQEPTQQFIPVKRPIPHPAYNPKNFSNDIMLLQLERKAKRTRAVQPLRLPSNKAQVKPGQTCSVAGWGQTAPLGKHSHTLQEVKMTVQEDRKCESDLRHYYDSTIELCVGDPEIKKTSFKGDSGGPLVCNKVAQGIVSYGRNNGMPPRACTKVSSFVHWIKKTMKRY

| Binder | Kd |
| --- | --- |
| B1 | 3.5 nM |
| B2 | 3.8 nM |
| B3 | 5.5 nM |
| B4 | 5.7 nM |
| B5 | 5.9 nM |
| B6 | 6 nM |
| B7 | 6.1 nM |
| B8 | 7.1 nM |
| B9 | 11 nM |
| B10 | 12.4 nM |
| B11 | 15.6 nM |
| B12 | 18.5 nM |
| B13 | 20.2 nM |
